Experimental data taken from CN114349852A.

Assays:
[1] = biological target: H3N2流感病毒血凝素蛋白 (A/Texas/50/2012) (H3N2 influenza A virus (A/Texas/50/2012)); assay: indirect ELISA on coated H3N2 hemagglutinin, hybridoma culture supernatant
[2] = biological target: H3N2流感病毒血凝素蛋白 (A/Texas/50/2012) (H3N2 influenza A virus (A/Texas/50/2012)); assay: indirect ELISA on coated H3N2 hemagglutinin, ascites

B1: 抗H3N2流感病毒血凝素蛋白单克隆抗体ZJU32-01 (antibody, V domains shown)
VH: QVQLQQSGAELMKPGASVKISCKATGYIFSSYWIEWVKQRPGHGLEWIGEILPGSGRTNYKEIFKGKATFTADTSSNTAYMQLSSLTSEDSAVYYCARTRTTGSSDWGQGTTLTVSS
VL: DVLMTQTPLSLPVSLGDQASISCRSSQTTVHSNGNTYLEWYLQKPGQSPKLLIYKVSNRFFGVPDRFSGSGSGTDFTLKISRVEAEDLGVYYCFQGSHVPYTFGGGTKLEIK
效价 (ELISA titer) (dilution (1:x)) [1]: 64
效价 (ELISA titer) (dilution (1:x)) [2]: 2048
